Assays:
Test in all cases: cell-based or functional assay
FGF Receptor 3 = target: FGF Receptor 3
FGF Receptor 2 = target: FGF Receptor 2
FGF Receptor 1 = target: FGF Receptor 1

Chain of FGF Receptor 3 (P22607 23-806): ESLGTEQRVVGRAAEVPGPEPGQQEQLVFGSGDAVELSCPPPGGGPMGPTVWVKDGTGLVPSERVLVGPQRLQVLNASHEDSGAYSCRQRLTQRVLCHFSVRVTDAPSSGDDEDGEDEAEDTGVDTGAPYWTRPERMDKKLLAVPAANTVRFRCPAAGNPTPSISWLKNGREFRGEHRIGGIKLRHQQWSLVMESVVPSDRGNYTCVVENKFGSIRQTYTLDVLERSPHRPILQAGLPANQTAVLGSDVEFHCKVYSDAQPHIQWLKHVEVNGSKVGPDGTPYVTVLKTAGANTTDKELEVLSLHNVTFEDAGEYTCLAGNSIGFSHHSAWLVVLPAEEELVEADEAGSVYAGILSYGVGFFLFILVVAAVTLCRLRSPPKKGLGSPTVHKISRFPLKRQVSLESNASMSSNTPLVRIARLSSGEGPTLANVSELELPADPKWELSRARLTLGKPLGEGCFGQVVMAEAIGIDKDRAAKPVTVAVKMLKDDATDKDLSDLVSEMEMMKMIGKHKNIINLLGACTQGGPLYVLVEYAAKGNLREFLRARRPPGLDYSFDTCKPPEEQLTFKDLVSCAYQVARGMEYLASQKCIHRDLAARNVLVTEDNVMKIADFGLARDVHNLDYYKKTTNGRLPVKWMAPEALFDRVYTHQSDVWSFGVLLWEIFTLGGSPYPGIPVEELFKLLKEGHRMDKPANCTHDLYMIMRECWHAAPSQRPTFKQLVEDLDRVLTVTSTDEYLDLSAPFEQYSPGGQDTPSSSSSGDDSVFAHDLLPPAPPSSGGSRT

- JNK activation (Western, anti-active JNK), lowest active concentration (FGF Receptor 3): < 12.5 ng/mL
- JNK activation (Western, anti-active JNK), lowest active concentration (FGF Receptor 2): < 12.5 ng/mL
- JNK activation (Western, anti-active JNK), lowest active concentration (FGF Receptor 1): < 12.5 ng/mL
Substance: wild type FGF-9 (ligand)
